For assay [1], the target named is TeSasA, T. elongatus SasA (wild type, full-length) (Thermosynechococcus elongatus). Nature of the assay: native MS; TeSasA or TeSasAN alone; 150 mM ammonium acetate, pH 6.8.
Assay [2] concerns the target TeKaiCDD, T. elongatus KaiC mutant with Ser431 and Thr432 substituted by aspartate residues (Thermosynechococcus elongatus) (UniProt Q79V60). The assay can be described thus: native MS; TeKaiCDD (20 µM) titrated with KaiB or SasA proteins, incubated at 37 °C for 6 h, buffer-exchanged into 150 mM ammonium acetate, pH 6.8; nanoflow ESI.

The text below walks through data of paper PMC6769508.

Where “and” joins values, the source holds several entries; their conditions need not be identical. Equal values may be shown once.

TeKaiCDD, T. elongatus KaiC mutant with Ser431 and Thr432 substituted by aspartate residues (Thermosynechococcus elongatus), sequence (Q79V60 other isoform, or with tags, fused parts or gaps mutant): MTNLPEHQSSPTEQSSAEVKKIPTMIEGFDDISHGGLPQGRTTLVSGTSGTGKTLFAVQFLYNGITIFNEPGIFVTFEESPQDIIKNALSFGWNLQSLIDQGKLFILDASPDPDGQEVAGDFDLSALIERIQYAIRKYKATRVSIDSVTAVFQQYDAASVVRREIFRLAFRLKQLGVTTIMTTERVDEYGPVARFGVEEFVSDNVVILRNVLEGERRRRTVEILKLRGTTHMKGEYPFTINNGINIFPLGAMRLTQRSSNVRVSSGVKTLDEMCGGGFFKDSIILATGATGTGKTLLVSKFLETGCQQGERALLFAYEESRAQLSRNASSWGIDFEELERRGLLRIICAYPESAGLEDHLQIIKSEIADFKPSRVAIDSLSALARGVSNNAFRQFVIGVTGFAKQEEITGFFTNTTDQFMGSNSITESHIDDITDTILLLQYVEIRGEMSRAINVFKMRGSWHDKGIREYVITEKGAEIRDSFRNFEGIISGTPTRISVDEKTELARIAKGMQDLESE

The stoichiometry N is a count of units in the complex or per binding partner. In the case of “TeSasA, T. elongatus SasA (wild type, full-length) (natural protein)”, the stoichiometry N in assay [1] came to 2. Moreover, the stoichiometry N (binder chains per KaiC hexamer) in assay [2] was 2 and 4 and 6.
With “TeSasAN, the N-terminal domain of T. elongatus SasA (domain or fragment)”, in assay [2], the stoichiometry N (binder chains per KaiC hexamer) was 2 and 3 and 4.
